Source: a protein production outcome set (Wang et al. 2014)

Test: label from the status in PepcDB records

Row | Sequence | protein production
1 | SLANIREIAKRAGISIATVSRHLNNTGYVSEDAREKIQKVVDELNYTPNALARAMFTKNSKTIGLMVPNISNPFFNQMASVIEEYAKNKGYTLFLCNTDDDKEKEKTYLEVLQSHRVAGIIASRSQCEDEYANIDIPVVAFENHILDNIITISSDNYNGGRMAFDHLYEKGCRKILHIKGPEVFEATELRYKGFLDGARAKDLEIDFIEFQHDFQVKMLEEDINSMKDIVNYDGIFVFNDIAAATVMRALKKRGVSIPQEVQIIGFDNSFIGELLYPSLTTINQPIEALAYTIIELLIKIINGEGVLIEDYIMEVKLIERETTISLKDEG | not failed
2 | SLDTEKDCIKAVAAKDGITVIKVKSSNKLLSWHFMRKLFEIFEFYQEPVDMVATSEVGVSLTIDNDKNLPDIVRALSDIGDVTVDKDMVIICIVGDMEWDNVGFEARIINALKGVPVRMISYGGSNYNVSVLVKAEDKKKALIALSNKLFNSRATKA | not failed
3 | SLKKIVESTTFPRTKQSITEDLKALGLKKGMTVLVHSSLSSIGWVNGGAVAVIQALIDVVTEEGTIVMPSQSVELSDPKEWGNPPVPEEWWDIIRESMPAYNSNYTPTTRGMGQIVELFRSYPEVKRSNHPNYSFVAWGKHKNKILNQHPLEFGLGEQSPLGKLYIRESYVLLLGADFDSSTCFHLAEYRIPYQKIINRGAPIIVEGKRVWKEYKELEFREELFQEVGQAFEAEHNMKVGKVGSANCRLFSLTEAVDFAEKWFINNDSKNIKK | not failed
4 | SLMAGSFCWRMLGLVSKVGNRARCFSSVAASEEELLDFSGSELQFNSCSLHLSLHPFFNFLLGIHSCFVCKESKTDVKRCVVTQCGKFYHEACVKKYPLTVFESRGFRCPLHSCVSCHASNPSNPRPSKGKMMRCVRCPVAYHSGDACLAAGCSVIASNSIICTAHFTARKGKRHHAHVNVSWCFVCSKGGSLLCCESCPAAFHPDCLNIEMPDGSWFCNDCRAGKKLHFQDIIWVKLGNYRWWPAEVCHPKNVPPNIQKMKHEIGEFPVFFFGSKDYYWTHQARVFPYMEGDRGSRYQGVRGIGRVFKNALQEAEARFREIKLQREARETQESERKPPPYKHIKVNKPYGKVQIYTADISEIPKCNCKPTDENPCGFDSECLNRMLMFECHPQVCPAGEFCQNQCFTKRQYPETKIIKTDGKGWGLVAKRDIRKGEFVNEYVGELIDEEECMARIKHAHENDITHFYMLTIDKDRIIDAGPKGNYSRFMNHSCQPNCETLKWTVNGDTRVGLFAVCDIPAGTELTFNYNLDCLGNEKTVCRCGASNCSGFLGDRPKTSTTLSSEEKGKKTKKKTRRRRAKGEGKRQSEDECFRCGDGGQLVLCDRKFCTKAYHLSCLGLGKRPFGKWECPWHHCDVCGKPSTSFCHLCPNSFCKEHQDGTAFSCTPDGRSYCCEHDLGAASVRSTKTEKPPPEPGKPKGKRRRRRGWRRVTEGK | not failed
5 | SLPIASTATQMGSNKTRIFARQPAKAPPPLAWLSRPRDPRATAIAAAGQQSSRRVSKRELESHGSATDAWTAIHGVVYDITAYFRFHPGGAEILFIEAAGKDSTAVFDEMHPWVNVAWLLKDYRIGLYAPESEDDGGDDDDDDRTMTSPE | not failed
6 | SLQCIFLISDSGEVMLEKQLTGHRVDRSICAWFWDQYISQGDSFKALPVIASPTHYLFQIVRDGITFLACSQVEMPPLMAIEFLCRVADVLSEYLGGLNEDLIKDNFIIVYELLDEMIDNGFPLTTEPSILKEMIAPPNLVSKMLSVVTGNASNVSDTLPSGAGSCVPWRPTDPKYSSNEVYVDLVEEMDAIVNRDGELVKCEIYGEVQMNSQLTGFPDLTLSFANPSILEDMRFHPCVRYRPWESHQVLSFVPPDGEFKLMSYRVKKLKNTPVYVKPQITSDSGTCRISVLVGIRSDPGKTIESITLSFQLPHCVSSADLSSNHGTVTILSNKTCTWTIGRIPKDKTPCLSGTLALEPGLERLHVFPTFKLGFKIMGIALSGLRIEKLDLQTIPPRLYKGFRAQTRTGEFDVRL | failed
7 | SLRADKPKCSIQNFFIPALGKDPNSRDNTTLNFMVRCDNPNKDKGIYYDDVHLNFSTINTTKINSSALVLVGNYTVPKFYQGHKKKAKKWGQVKPLNNQTVLRAVLPNGSAVFRLDLKTQVRFKIVFWKTKRYGVEVGADVEVNGDGVKAQKKGIKMKKS | not failed
8 | SLRREMQEILPGLFLGPYSSAMKSKLPVLQKHGITHIICIRQNIEANFIKPNFQQLFRYLVLDIADNPVENIIRFFPMTKEFIDGSLQMGGKVLVHGNAGISRSAAFVIAYIMETFGMKYRDAFAYVQERRFCINPNAGFVHQLQEYEAIYLAK | not failed
9 | SLRSMVSDSVDEIVDGVSKTTAEVINGRKSIAQYATSLIENNPEPDNVRTIISQPLIKNTFLLVGFGLEKDGSNINNDPSWNPGPTWDPRVRPWYKDAKNAGKLVITAPYADSASGEILVSVATPVKDSATGQFLGSIFYDVSLAELAELVNEVKLFDAGYVFIVSEDGTTIAHPKKEFNGKPMSEFLGESKINVDTHQVIINGKPYAVSFSDVEGEDWYVGVVIDEEIAYAALDELRRS | not failed
10 | SLSPAELHADSIVIDGLIIAKWNRELFEDMRKGGLTAANCTVSVWEGFQATVNNIVASNKLIRDNSDLVIPVRSTADIRKAKEQGKTGILYGFQNAHAFEDQIGYVEVFKQLGVGIVQMCYNTQNLVGTGCYERDGGLSGFGREIVAEMNRVGIMCDLSHVGSKTSEEVILESKKPVCYSHCLPSGLKEHPRNKSDEELKFIADHGGFVGVTMFAPFLKKGIDSTIDDYAEAIEYVMNIVGEDAIGIGTDFTQGHGHDFFEWLTHDKGYARRLTNFGKIVNPLGIRTVGEFPNLTETLLKRGMPERVVRKVMGENWVRVLRDVWGE | not failed
11 | SLSRRKPNPVIVADIRQAEGALAEIATIDRKVGEIEAQMNEAIDAAKARASQKSAPLLARRKELEDGVATFATLNKTEMFKDRKSLDLGFGTIGFRLSTQIVQMSKITKDMTLERLRQFGISEGIRIKEDVNKEAMQGWPDERLEMVGLKRRTTDAFYIEINREEVADTAA | not failed
12 | SLSTVNIKSTGVTSTELAEIGEHQSEMPGVKVGTSWTRSYPNGTDLSSVLGTVTTEKQGLPSDSIKTLLAEGYSRDDSVGQSQLEKQYENVLRGTKSQTEVKTQDGVIQKEIKKYGGQKGDNVQLTIN | failed
13 | SNSIGLRQSVSDKGIEIVNLLAPKVEMLGFDLLGAEYLLVPSGAILRLYIDIPFAMQPECMVSIDDCERVSREVSAYLDLEEPISGNYTLEVSSP | failed
14 | SPESLYLLWGPQMQFFFNDAYRPVLGPRLANALGQTIQTLWADAWPDVQPMVEQAFLGYSCRHEDLPVNMQRYPGEELTWWSFSMSPVYDEDDEQVLGVLCHTVETTDRVLLARHARQTEAH | failed
15 | SPFIRANTAWLGHLEFAYDLVRFEKPEILVELGTHMGASFFSFCQGVKDGGLATKCFAVDTWTGDGHTGPYGEGVFHIVDKVVKTSYPNIGNLIKSTFDEAVDQFQDGTINLLHIDGYHTYEAVSHDYKTWLPKLADNGIVLFHDIEVKDRNFGVYKFWDEVKAKYPHFQFQHSYGLGVLFPKGCSDRFKEILKNKEEIQDMYK | failed
16 | SRSKQKSRRRCFQCQTKLELVQQELGSCRCGYVFCMLHRLPEQHDCTFDHMGRG | not failed
17 | SSAEAGGGIRKRHRTKFTAEQKERMLALAERIGWRIQRQDDEVIQRFCQETGVPRQVLKVWLHNNKH | not failed
18 | SSDASKVTSKGAGLSKAFVGQKSSFLVDCSKAGSNMLLIGVHGPTTPCEEVSMKHVGNQQYNVTYVVKERGDYVLAVKWGEEHIPGSPFHVTVP | not failed
19 | SSGNHIFKGRAAGIAVNENGKGLITENVIRENQWGGVDIRRGGIPVLRSNLICFGYSDGVVVGDEGKGLIEGNTIYANKGCGVWMMSSSLPHVTSNHVSYNGLYGVAVFSQKDGSSELPRGHRAQENFSEDGDAILWETELEKEDDPLRRPITIALVESNSINHNGASGLYVQSSEALHVITNVIHANGDRGITVAQSSQPTRVANNSISCNRQSGVKVEAQCKVELRGNGIYDNRGHGIITKGDSTIVIENDIIGNRGSGLQLLPRSDTKVIKNRIHSFRAYGIAVRGRAKALVQENIIFQGKTSKTIFQQISNNRECIMQNNKFLVFKKKSDTWR | not failed
20 | SSISRANKKKPSMPNVSNDLSQKLYATMEKHKEVFFVIHLHAGPVINTLPPIVDPDPLLSCDLMDGRDAFLTLARDKHWEFSSLRRSKWSTLCMLVELHTQ | failed
